Data on 2 substances can be found in article PMC3248800.

For this assay, the target named is αβ T cell receptor A6 (human). Kind of assay: SPR. In general terms: SPR reads the build-up and loss of mass on a sensor chip optically.

Usually Kd stands for a measure of binding affinity in units of concentration. High values mean a looser complex, low ones a tighter complex.

On to “Tel1p-HLA-A2 complex (S. cerevisiae Tel1p peptide … presented by wild-type HLA-A*0201) (from UniProt P61769 21-119) (peptide-MHC)”, for which the Kd is 41 µM and the dH was -3 kcal/mol.

“Tel1p-HLA-A2 (A150P) complex (from UniProt P61769 21-119) (peptide-MHC)” gave a Kd of 5 µM.
